For 1 protein, Km results are on record in publication PMC9499114, “The Magnetosome Protein, Mms6 from Magnetospirillum magneticum Strain AMB-1, Is a Lipid-Activated Ferric Reductase” (International Journal of Molecular Sciences, 2022).

Substrate in data set [1]: Cc1cc2nc3c(=O)[nH]c(=O)nc-3n(C[C@H](O)[C@H](O)[C@H](O)COP(=O)(O)OP(=O)(O)OC[C@H]3O[C@@H](n4cnc5c(N)ncnc54)[C@H](O)[C@@H]3O)c2cc1C
Put plainly: ferrozine A562 ferric reductase assay. Format: biochemical, Paramagnetospirillum magneticum. The note with it: stimulation of ferric reductase activity, co-substrates NADH and ferric citrate, pH 7.5, varied: cofactor.

Substrate in data set [2]: NC(=O)C1=CN([C@@H]2O[C@H](COP(=O)(O)OP(=O)(O)OC[C@H]3O[C@@H](n4cnc5c(N)ncnc54)[C@H](O)[C@@H]3O)[C@@H](O)[C@H]2O)C=CC1
The data set can be described thus: ferrozine A562 ferric reductase assay. As to conditions: stimulation of ferric reductase activity, electron donor, FAD and ferric citrate present, pH 7.5. Format: biochemical, Paramagnetospirillum magneticum.

B1: Mms6 (Paramagnetospirillum magneticum AMB-1) (protein)
chain: VGGTIWTGKGLGLGLGLGLGAWGPIILGVVGAGAVYAYMKSRDIESAQSDEEVELRDALA
notes: micelles of about 13-15 nm
In general, Km refers to the concentration of substrate that gives half-maximal velocity. For the protein B1, the Km is 25 µM in data set [1] and 15 µM in data set [2].
